# Measured values from US12121554B2 (priority 2018, dated 2024).
# How the values were obtained:
# CD8 CAR T cells = format: cell-based, murine
# [1] = tested on: CD19-specific CAR T cells; format: cell-based; details: recombinant murine IFNβ in IL2
# Method: FIGS. 8A-8D. CD19 CAR T cells treated with IFNβ in vitro. EGFRvIII-specific CAR T cells (with the scFv 139) and CD19-specific CAR T cells (with the scFv FMC63) were cultured in IL2 in the absence or presence of recombinant murine IFNβ, and CAR expression on the surface was measured using Biotin-Protein L and recognized with streptavidin-PE (Protein L+SA PE). Representative staining is shown in FIG. 8A, and the mean of three technical replicates was quantified in FIG. 8B. FIG. 8C: Representative expression of the activation markers CD25 and CD69 were shown for CAR T cells cultured as in FIG. 8A. FIG. 8D: Inhibitory receptor expression (PD1, LAG3, and TIM3) was quantified on CD8 CAR T or UTD cells cultured as in FIG. 8A. Average expression of three technical replicates is shown.
molecule,measurement,setting,value
"recombinant IFNβ: recombinant murine interferon β added to CAR T cell cultures (protein, UniProt P01575 22-182, looked up) Interferon beta: INYKQLQLQERTNIRKCQELLEQLNGKINLTYRADFKIPMEMTEKMQKSYTAFAIQEMLQNVFLVFRNNFSSTGWNETIVVRLLDELHQQTVFLKTVLEEKQEERLTWEMSSTALHLKSYYWRVQRYLKLMKYNSYAWMVVRAEIFRNFLIIRRLTRNFQN",CAR expression on the surface of transduced CD8 T cells,CD8 CAR T cells,dose-dependent increase was observed in CAR expression
same,"expression of the exhaustion markers Lag3, PD1, and Tim 3",CD8 CAR T cells,"dose dependent increase in expression of the exhaustion markers Lag3, PD1, and Tim 3"
same,proportion of AnnexinV positive apoptotic cells,CD8 CAR T cells,dose-dependent increase in the proportion of AnnexinV positive apoptotic cells
same,"proportion of triple positive cells (Lag3, PD1, Tim3)",CD8 CAR T cells,"dramatically increased by IFNβ between 0 and 1 ng/mL, and plateaued at higher doses"
same,CAR expression on the surface of CD19-specific CAR T cells,[1],promoted higher expression levels of the CAR molecule
same,"activation phenotype (CD25, CD69) of CD19-specific CAR T cells",[1],supported an activated phenotype
same,inhibitory receptor expression of CD19-specific CAR T cells over untransduced cells,[1],not associated with increased levels of inhibitory receptor expression
